Tests used:
androgen receptor = target: T1, androgen receptor (Homo sapiens, UniProt P10275); test: DHT-induced AR transactivation in PC-3(AR)2 cells, MMTV-Luc reporter; assay type: cell-based
T1 construct: expressed in transfected cells; host or cells: PC-3(AR)2 prostate cancer cells
T1 sequence (P10275 1-920): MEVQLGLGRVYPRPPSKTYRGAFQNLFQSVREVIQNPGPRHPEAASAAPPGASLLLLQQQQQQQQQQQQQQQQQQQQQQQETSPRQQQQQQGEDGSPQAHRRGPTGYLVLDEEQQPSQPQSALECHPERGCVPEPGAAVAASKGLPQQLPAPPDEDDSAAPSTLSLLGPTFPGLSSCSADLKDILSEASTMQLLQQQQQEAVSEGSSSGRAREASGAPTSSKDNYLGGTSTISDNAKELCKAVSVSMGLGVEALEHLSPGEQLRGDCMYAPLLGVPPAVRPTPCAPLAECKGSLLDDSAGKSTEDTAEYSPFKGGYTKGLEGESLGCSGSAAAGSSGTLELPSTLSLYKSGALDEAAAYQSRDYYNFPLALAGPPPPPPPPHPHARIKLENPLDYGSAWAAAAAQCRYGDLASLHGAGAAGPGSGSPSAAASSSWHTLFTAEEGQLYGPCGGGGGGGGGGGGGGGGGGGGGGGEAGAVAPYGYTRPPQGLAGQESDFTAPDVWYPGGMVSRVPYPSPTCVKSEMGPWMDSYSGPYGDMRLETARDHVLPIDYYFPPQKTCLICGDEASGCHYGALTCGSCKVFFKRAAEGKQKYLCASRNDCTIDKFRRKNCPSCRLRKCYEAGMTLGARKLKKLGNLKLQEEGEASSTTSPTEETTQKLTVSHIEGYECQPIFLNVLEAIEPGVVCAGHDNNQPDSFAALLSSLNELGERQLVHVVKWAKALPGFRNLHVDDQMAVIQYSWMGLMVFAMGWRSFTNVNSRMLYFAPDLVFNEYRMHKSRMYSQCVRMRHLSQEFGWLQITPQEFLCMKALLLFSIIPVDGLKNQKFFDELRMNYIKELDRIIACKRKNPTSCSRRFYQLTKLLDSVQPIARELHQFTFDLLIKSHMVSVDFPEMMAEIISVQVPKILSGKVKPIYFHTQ
Protocol: (§1) Prostate cancer cells (stable transfected with androgen receptor) were transiently transfected with PSF-A expression vector together with a MMTV-Luc reporter vector. Cells were treated with either vehicle or 1 nM DHT for at least 24 hours. Luciferase activities were measured and normalized by β-galactosidase acitvity. Data shown in FIG. 10 are the mean of three separate experiments performed in triplicate ±S.E. Note: the empty vector pcDNA3 was added to the DNA mixture to ensure that the amounts of CMV promoter in all the transfection assays are equal.
as §1, with “(stably” for “(stable”, “PSF-F” for “PSF-A”, “11” for “10”
PC-3(AR)2 cells are PC-3 cells rendered androgen sensitive by stable transfection of a human androgen receptor cDNA. PC-3(AR)2 cells were transiently transfected with a constant AR expression vector together without or with increasing doses of PSF-A vectors. […]

ERβ = target: T2, ERβ (Homo sapiens, UniProt Q92731); test: ERβ transactivation, 3xERE luciferase reporter in SHM cells; assay type: cell-based; settings: 3xERE promoter
T2 construct: expressed in transfected cells; host or cells: SHM (Syrian hamster myocyte) cells
Protocol: FIG. 4. PSF inhibit transactivation of PR but not estrogen receptor (ER). (A) SHM cells were transient cotransfected with PRA or PRB expression vectors with or without increasing dose (0.05, 0.1 and 0.2 μg) of His-PSF, together with 3×PRE (upper) or MMTV (lower) luciferase reporter vector. Four hours after transfection, culture medium was replaced with fresh DMEM containing 10 nM progesterone and the incubation continued for at least 30 hours. (B) SHM cells were transiently cotransfected with ERα or ERβ expression vector with (0.2 μg) or without His-PSF, together with 3×ERE luciferase reporter vector. Four hours after transfection, culture medium was replaced with fresh DMEM with (solid bar) or without (empty bar) 10 nM estrodial and incubation continued for at least 30 hours. Luciferase activity was measured and normalized by β-galatosidase activity. […]
For immunoprecipitation of the endogenous PR and PSF, T47D cells cultured in 150 mm dishes were lysed in 800 μl NETN buffer containing 150 mM NaCl plus protease inhibitor cocktail. […] Gels were treated with Enhancer (NEN, Boston, US) dried and analyzed by autoradiography. • Cell culture and transient transfection: SHM cells and 293T cells were maintained in DMEM plus 5% FCS (Sigma) as described before (22). […] Luciferase activity was determined by using the luciferin reagent (Promega) according to manufacture's protocol. […]

T2 sequence (Q92731 whole entry, species assumed): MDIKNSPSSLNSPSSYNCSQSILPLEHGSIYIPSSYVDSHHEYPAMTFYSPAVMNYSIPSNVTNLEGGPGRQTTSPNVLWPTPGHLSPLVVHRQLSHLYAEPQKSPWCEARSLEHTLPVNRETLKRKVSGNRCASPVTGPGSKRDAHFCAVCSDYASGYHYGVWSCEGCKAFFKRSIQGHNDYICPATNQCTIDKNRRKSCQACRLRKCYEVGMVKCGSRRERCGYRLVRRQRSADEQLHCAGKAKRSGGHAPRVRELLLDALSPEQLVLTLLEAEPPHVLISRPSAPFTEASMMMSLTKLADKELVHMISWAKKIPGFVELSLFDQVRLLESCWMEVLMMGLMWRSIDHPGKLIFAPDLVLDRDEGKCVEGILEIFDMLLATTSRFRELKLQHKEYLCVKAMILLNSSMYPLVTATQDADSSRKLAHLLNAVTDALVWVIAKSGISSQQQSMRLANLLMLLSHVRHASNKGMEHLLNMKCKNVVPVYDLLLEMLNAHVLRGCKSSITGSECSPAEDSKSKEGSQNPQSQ

B1: polypyrimidine tract binding protein-associated splicing factor (protein)
chain: MSRDRFRSRGGGGGGFHRRGGGGGRGGLHDFRSPPPGMGLNQNRGPMGPGPGQSGPKPPIPPPPPHQQQQQPPPQQPPPQQPPPHQPPPHPQPHQQQQPPPPPQDSSKPVVAQGPGPAPGVGSAPPASSSAPPATPPTSGAPPGSGPGPTPTPPPAVTSAPPGAPPPTPPSSGVPTTPPQAGGPPPPPAAVPGPGPGPKQGPGPGGPKGGKMPGGPKPGGGPGLSTPGGHPKPPHRGGGEPRGGRQHHPPYHQQHHQGPPPGGPGGRSEEKISDSEGFKANLSLLRRPGEKTYTQRCRLFVGNLPADITEDEFKRLFAKYGEPGEVFINKGKGFGFIKLESRALAEIAKAELDDTPMRGRQLRVRFATHAAALSVRNLSPYVSNELLEEAFSQFGPIERAVVIVDDRGRSTGKGIVEFASKPAARKAFERCSEGVFLLTTTPRPVIVEPLEQLDDEDGLPEKLAQKNPMYQKERETPPRFAQHGTFEYEYSQRWKSLDEMEKQQREQVEKNMKDAKDKLESEMEDAYHEHQANLLRQDLMRRQEELRRMEELHNQEMQKRKEMQLRQEEERRRREEEMMIRQREMEEQMRRQREESYSRMGYMDPRERDMRMGGGGAMNMGDPYGSGGQKFPPLGGGGGIGYEANPGVPPATMSGSMMGSDMRTERFGQGGAGPVGGQGPRGMGPGTPAGYGRGREEYEGPNKKPRF
notes: expressed from transfected His-PSF vector or in vitro translated
Androgen receptor
  production/secretion of PSA: blocks
Androgen receptor; PC-3(AR)2 cells, 1 nM DHT
  androgen receptor activation of the MMTV promoter: blocks
ERβ
  inhibitory effects on ERβ: not observed

From US20070286806A1, “Methods and Compositions for Modulating a Steroid Receptor” (Mount Sinai Hospital, priority 2004, published 2007)
